The values that follow come from publication PMC6104087, “Structural basis for membrane tethering by a bacterial dynamin-like pair” (Nature Communications, 2018).

First the molecules themselves.
B3: Cj-DLP1 (natural protein, Campylobacter jejuni, UniProt A0A0H3PJL7 1-728, looked up)
chain: MKELFQKIWQNELQFLNFDAKFQDKSKLDTAECAIILSVNKDNYERYFLLKEFQELCKKIDLRVDIFSMQNAQICILNLFKSGFISKQDLLKALKILEKISKNTEIFDFILQEKVQSIDQKALFQNDFKELNTINLELQKLSFDENLKSRLQKTLEKFQNLEFNIAITGVMNAGKSSLLNALLKEDFLGVSNIPETANLTVLSYGKSEEAKIYFWDKKEWQNILESSHFNADLKEFIDKLDKSVNIEDFIKDKPLIQNIALCELKNFSSAKNKISALIKKIEIKSHLEFLKNNISIVDTPGLDDVVVQREIVTNEYLRESDFLIHLMNASQSLTQKDADFLVHCLLNSRLSKFLIVLTKADLLSKKDLEEVIVYTKESLKSRLVDLDENLVEKIDFLCVSAKMASDFYKGLASKESLQKSGMQEFENYLFNELYAGEKSKIALRAYKKELHLELKNILSEYEMQNRLIKENKQGVSEENQKLLLELQKQNTLLKEAQDEISNSIAKLKNIDSGIDNLVLLLAKKLKERLIDEFKYLKNNAQKLNLSRILNIVDITTKDGINDILREIKFENIKKIEELKTNLSLKYDFLKDDFDNGFEGFKDGISKNIDSIFQSEKFALLRLKIEKLSNLKSDLYELETNLDTVIFDTFKEFKMSEILNSLNINGAFFEFLNDKLKHYEKNQKSKLESLEKVLQSLKNQDANILNSFEENLEKIEKLKQLEMGLLNAD
notes: Cj-DLP1, dynamin-like protein of Campylobacter jejuni, gene cj0411, full-length protein, 84.5 kDa; Monomer alone; Two copies stand in the 2:2 tetramer with Cj-DLP2; also called cj0411; CJ0411; source: E. coli BL21 (DE3), purified (HisTrap, gel filtration)
B4: Cj-DLP2 (natural protein, Campylobacter jejuni)
chain: MQINLLNDFIKAYENTYSVSFDDSFKGRIQELCKELNEPFMHASYALENELKELVFSLDKNVNIAIIGQFSSGKSSLLNLILGRDCLPTGVVPVTFKPTFLRYAKEYFLRVEFEDGSDIITNIEKLAFYTDQRNEVKQAKSLHIFAPIPLLEKITLVDTPGLNANENDTLTTLDELKNIHGAIWLSLIDNAGKKSEEDAIKANLELLGENSICVLNQKDKLSAEELDNVLNYAKSVFLKYFNELIAISCKEAKDEQSYEKSNFQSLLDFLTQLDTTVLKEKFVKRKILNLCEILEDENQLFVGIFDRLLNQFQSYEKHLLLAYENFLKEIEILNHQILEQLKSISERISSEIFASVKEKDAYFYKESKGFLKKDLYTRYDYKAPYISSDDAFLAMFYNSDVMSKEFKKIKNELYKSFEEIKMKLKDFINILEREILLFKAEFSNIQKDHIFQSDKNFSELRAFCNASDEYFLKDFKELLFKSILELDLFFEKLNLKAFTNYENATKLSLAFFSRKINESRVLYELDSSEFVLFYPKKSEIYERVLNELNVYEFETLLINKPILTKIAKNFLEQSQNLIQEKNKFLDLKKAELQKRRAQILNVRESIKED
notes: Cj-DLP2, dynamin-like protein of Campylobacter jejuni, gene cj0412, 71.2 kDa; Monomer alone; Two copies stand in the 2:2 tetramer with Cj-DLP1; also called cj0412; CJ0412; source: E. coli BL21 (DE3), purified (amylose resin, TEV cleavage, gel filtration); not shown: MBP, N-terminal, cleaved

Common to all, as to details: both partners purified
The assay “Cj-DLP2” has as its target B4. Briefly: SEC-MALS; the two proteins mixed; 100 μl at 1–2 mg/ml on Superdex 200 10/300 GL in TEN 7.5 (20 mM Tris pH 7.5, 1 mM EDTA, 1 mM sodium azide), 1 mM DTT.
For assay [1], the target named is B3. Described as above.
For assay [2], the target named is B3. Put plainly: crystal structure; Cj-DLP1/2 tetramer, apo (3.7 Å) and with GDP·AlF4¯ (3.9 Å), space group P2(1)2(1)2(1); sitting drop, 0.7–1.0 M succinate pH 7.0, 20 °C.

B1: Cj-DLP1_(∆trunk) (natural protein)
chain: MKELFQKIWQNELQFLNFDAKFQDKSKLDTAECAIILSVNKDNYERYFLLKEFQELCKKIDLRVDIFSMQNAQICILNLFKSGFISKQDLLKALKILEKISKNTEIFDFILQEKVQSIDQKALFQNDFKELNTINLELQKLSFDENLKSRLQKTLEKFQNLEFNIAITGVMNAGKSSLLNALLKEDFLGVSNIPETANLTVLSYGKSEEAKIYFWDKKEWQNILESSHFNADLKEFIDKLDKSVNIEDFIKDKPLIQNIALCELKNFSSAKNKISALIKKIEIKSHLEFLKNNISIVDTPGLDDVVVQREIVTNEYLRESDFLIHLMNASQSLTQKDADFLVHCLLNSRLSKFLIVLTKADLLSKKDLEEVIVYTKESLKSRLVDLDENLVEKIDFLCVSAKMASDFYKGLASKESLQKSGMQEFENYLFNELYAGEKSKIALRAYKKELHLELKNILSEYEMQNRLIKLKNQDANILNSFEENLEKIEKLKQLEMGLLNAD
notes: Cj-DLP1 of Campylobacter jejuni (cj0411) with amino acids 470-695 (trunk) deleted; also called Cj-DLP1 with the trunk removed; source: E. coli BL21 (DE3), expressed and purified as for native
With B1, the binding result in the assay with Cj-DLP2 is “binds”.

B2: Cj-DLP2_(∆trunk-tip) (natural protein)
chain: MQINLLNDFIKAYENTYSVSFDDSFKGRIQELCKELNEPFMHASYALENELKELVFSLDKNVNIAIIGQFSSGKSSLLNLILGRDCLPTGVVPVTFKPTFLRYAKEYFLRVEFEDGSDIITNIEKLAFYTDQRNEVKQAKSLHIFAPIPLLEKITLVDTPGLNANENDTLTTLDELKNIHGAIWLSLIDNAGKKSEEDAIKANLELLGENSICVLNQKDKLSAEELDNVLNYAKSVFLKYFNELIAISCKEAKDEQSYEKSNFQSLLDFLTQLDTTVLKEKFVKRKILNLCEILEDENQLFVGIFDRLLNQFQSYEKHLLLAYENFLKEIEILNHQILEQLKSISERMSKEFKKIKNELYKSFEEIKMKLKDFINILEREILLFKAEFSNIQKDHIFQSDKNFSELRAFCNASDEYFLKDFKELLFKSILELDLFFEKLNLKAFTNYENATKLSRVLNELNVYEFETLLINKPILTKIAKNFLEQSQNLIQEKNKFLDLKKAELQKRRAQILNVRESIKED
notes: Cj-DLP2 of Campylobacter jejuni (cj0412) with amino acids 348-401 and 509-542 within the trunk tip removed; also called Cj-DLP2 with the trunk tip removed; source: E. coli BL21 (DE3), expressed and purified as for native; not shown: MBP, N-terminal, cleaved
For B2, the binding result with Cj-DLP1 [1] is reported as “binds”.

Turning to B3, the “stoichiometry N” value in the assay with Cj-DLP2 was 1 Cj-DLP1 per Cj-DLP2 (2:2 tetramer).

As to B4, the binding result in the assay with Cj-DLP1 [2] is on record as “binds”.
